From publication PMC3861047, “Role of Tomato Lipoxygenase D in Wound-Induced Jasmonate Biosynthesis and Plant Immunity to Insect Herbivores” come the findings set out here.

In this series the target is MBP-SlMYC2 (Solanum lycopersicum, UniProt A0A3Q7HRZ6 1-689). Description: EMSA; LightShift Chemiluminescent EMSA kit (Thermo Scientific), acrylamide gel; buffer, salt, pH and temperature not given. As to conditions: protein: recombinant; tags: N-terminal MBP (pMAL-c2); chain copies: 2; label: biotin (3' end per Methods); blunt. A general note: Mobility shift assays separate free from complexed probe on a gel.
Chain of MBP-SlMYC2 (A0A3Q7HRZ6 whole entry): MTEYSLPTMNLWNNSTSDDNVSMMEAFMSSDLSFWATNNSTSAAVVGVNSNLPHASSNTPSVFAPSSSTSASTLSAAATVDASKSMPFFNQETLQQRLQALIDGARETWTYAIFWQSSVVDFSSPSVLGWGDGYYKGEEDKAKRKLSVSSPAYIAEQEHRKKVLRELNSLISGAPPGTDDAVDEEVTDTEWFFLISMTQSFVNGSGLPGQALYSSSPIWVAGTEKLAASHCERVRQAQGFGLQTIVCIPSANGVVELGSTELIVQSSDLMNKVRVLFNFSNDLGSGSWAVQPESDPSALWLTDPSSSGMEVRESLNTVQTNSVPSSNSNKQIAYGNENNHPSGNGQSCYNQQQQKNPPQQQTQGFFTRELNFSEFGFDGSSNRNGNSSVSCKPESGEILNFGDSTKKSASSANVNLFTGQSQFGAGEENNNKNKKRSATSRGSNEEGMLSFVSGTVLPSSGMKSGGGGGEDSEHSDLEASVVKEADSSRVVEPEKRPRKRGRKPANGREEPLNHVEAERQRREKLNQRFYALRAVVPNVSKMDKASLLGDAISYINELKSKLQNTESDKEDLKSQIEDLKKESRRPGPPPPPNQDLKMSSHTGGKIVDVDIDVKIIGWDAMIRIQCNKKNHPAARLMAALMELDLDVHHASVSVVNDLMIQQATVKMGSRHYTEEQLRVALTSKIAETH

B1: TomLoxDpro probe-369 (dsDNA)
DNA 1: TCGGTTTGACTAAATTCCACCATGTGTAAAGCTTGCACTAAAATGAAACC
DNA 2: GGTTTCATTTTAGTGCAAGCTTTACACATGGTGGAATTTAGTCAAACCGA
Turning to B1, the binding result is listed as “binds”.
